Test system: Escherichia coli TOP10
Assay: shrunken log2 fold change of peptide-encoding DNA abundance (4.5 h post-induction vs induction); higher = less antimicrobial activity (less host growth inhibition)
Conditions: time post-induction: 4.5 h; library: site-saturation at positions 5, 18, 19, 20
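Further: peptides expressed intracellularly from a pBAD plasmid library in pooled LB shake-flask culture, induced with 0.3% L-arabinose, DNA abundance read by NGS, three biological replicates, DESeq2 with apeglm shrinkage.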

| Sequence | shrunken log2 fold change |
| --- | --- |
| RRIRERPPRLPRPRPRPYCIPRP | -0.205 |
| RRIRLRPPRLPRPRPRPPSPPRP | 0.58 |
| RRIRLRPPRLPRPRPRPSTTPRP | -0.347 |
| RRIRTRPPRLPRPRPRPHNNPRP | -0.894 |
| RRIRNRPPRLPRPRPRPFREPRP | -0.0373 |
| RRIRFRPPRLPRPRPRPTEWPRP | 0.00734 |
| RRIRRRPPRLPRPRPRPWRLPRP | 0.289 |
| RRIRTRPPRLPRPRPRPWTEPRP | 0.00497 |
| RRIRCRPPRLPRPRPRPVTIPRP | -0.461 |
| RRIRGRPPRLPRPRPRPTCIPRP | 0.351 |
| RRIRARPPRLPRPRPRPDHSPRP | 0.0675 |
| RRIRCRPPRLPRPRPRPGMHPRP | -0.0345 |
| RRIRNRPPRLPRPRPRPKALPRP | 0.0983 |
| RRIRPRPPRLPRPRPRPDIAPRP | -0.0378 |
| RRIRLRPPRLPRPRPRPKSYPRP | -0.592 |
| RRIRFRPPRLPRPRPRPISEPRP | -0.0674 |
| RRIRDRPPRLPRPRPRPRESPRP | 0.583 |
| RRIRGRPPRLPRPRPRPRPTPRP | 0.906 |
| RRIRNRPPRLPRPRPRPYLDPRP | -0.181 |
| RRIRFRPPRLPRPRPRPQNFPRP | 0.0645 |
| RRIRVRPPRLPRPRPRPPMVPRP | 0.0314 |
| RRIRLRPPRLPRPRPRPQFLPRP | -0.0896 |
| RRIRHRPPRLPRPRPRPDIWPRP | -0.11 |
| RRIRARPPRLPRPRPRPFILPRP | -0.39 |
| RRIRVRPPRLPRPRPRPIYCPRP | -0.113 |

| Sequence | shrunken log2 fold change |
| --- | --- |
| RRIRIRPPRLPRPRPRPDAVPRP | 0.0396 |
| RRIRGRPPRLPRPRPRPSNKPRP | -0.0675 |
| RRIRIRPPRLPRPRPRPYNQPRP | -1.01 |
| RRIRLRPPRLPRPRPRPVCTPRP | -0.0517 |
| RRIRHRPPRLPRPRPRPAFHPRP | -0.152 |
| RRIRMRPPRLPRPRPRPRPWPRP | 0.996 |
| RRIRWRPPRLPRPRPRPSFKPRP | -0.226 |
| RRIRGRPPRLPRPRPRPAAEPRP | 2.52 |
| RRIRMRPPRLPRPRPRPSNMPRP | -0.0931 |
| RRIRLRPPRLPRPRPRPLPDPRP | 0.327 |
| RRIRSRPPRLPRPRPRPPESPRP | 0.877 |
| RRIRERPPRLPRPRPRPACHPRP | -0.0945 |
| RRIRPRPPRLPRPRPRPDTIPRP | -0.247 |
| RRIRFRPPRLPRPRPRPFFMPRP | -0.153 |
| RRIRMRPPRLPRPRPRPWADPRP | -0.108 |
| RRIRTRPPRLPRPRPRPQQYPRP | -0.0717 |
| RRIRFRPPRLPRPRPRPDRDPRP | -0.119 |
| RRIRERPPRLPRPRPRPHSNPRP | -0.255 |
| RRIRQRPPRLPRPRPRPVNTPRP | -0.0633 |
| RRIRIRPPRLPRPRPRPIIGPRP | -0.13 |
| RRIRNRPPRLPRPRPRPWHVPRP | 0.0188 |
| RRIRWRPPRLPRPRPRPQHQPRP | -0.142 |
| RRIRTRPPRLPRPRPRPPKQPRP | -0.00507 |
| RRIRERPPRLPRPRPRPQTTPRP | 0.0104 |
| RRIRCRPPRLPRPRPRPMTWPRP | -0.383 |
